Measurements: article PMC11032447

B1: mouse secretagogin [mouse] / helix-b of the Habc domain of mouse syntaxin-4 [mouse] (parent)
chain 1: MDNARRKTPARLDAACFWQIWQRFDKEEKGYIRETELDAFFDHLLAKSGTEDTLMEENVQKVKEQLMTSHNVSKEGRILMKELASMFLSEDENFLLFFRLETPLDNSVEFMQIWRKYDADSSGFISAAELCNFLRDLFLHHKKNISEAELEEYTSTMMKIFDKNKDGRLDLNDLARILALQENFLLQFKMDASSTEERKRDFEKIFAHYDVSKTGALEGPEVDGFVKDMMELVQPSISGVDLDKFREILLRHCDVNKDGKIQKSELALCLGLKINP
chain 2: TPLPEESMKQGLQNLREEIKQLGREVRAQLKAIEPQKE

Variants of: B1
Assay: ITC
Parameters: reference not given here
Conditions: with helix-b of the Habc domain of mouse syntaxin-4 [mouse]

Q: How did the ratio to parent turn out when chain 1 R198A was run?
A: 1.99

Q: chain 1 M229E was tested. Which ratio to parent did it give?
A: 12.8

Q: How did the ratio to parent turn out when chain 1 M229A was run?
A: 3.98

Q: For chain 1 V233A, which ratio to parent is on record?
A: 0.31

Q: For chain 1 L270A, which ratio to parent is on record?
A: 39.8
